Results on 18 sequences are retold here after a protein production outcome set (Wang et al. 2014).

The data set is described as follows: label from the status in PepcDB records.

In the case of “MLGGVIVVKKAIAALGIGAVAVSVSSINASALEKGTVTASALNIRSGPSSDCDKVAKLYKGKTVEILEKSNGWYKVRVSSSVVGWGSAKYISTSGSSEGTSSQNNSTSSGTTISGNGKVNVSSRLNVRSGAGTNYSLVGKANNGDVVKLLEQSNGWYKIKLSNGVTGWASSQYISKTSEDVGTNNSSNSNSTNNSDKKPSSEESIEGKNGKVTSAVSLNVRSGPGTSYSIIGKLNGGDVVELKAKSNGWYKVKLSSGTIGWVSASYISETNEDTKEKPNSSSNQNSQSNSNSKPSFTGNSDKSTAKGSTIVDFAYTLIGIPYQWGASGPDKFDCSGFTQYVFKHSVGVSIPRVSREQANFGSAISMGNYAPGDLVYFDTDGDGTTNHVGIYVGNSKFIHCSGTQTNPNKVKVDNLTSSYWSKVLLGARRFV”, the protein production entry is “failed”.

Turning to “MLGKSQKDDHKTTFNKHKKTFSIIVAIKDESKQVIESLVENLKRINYERYEVIIVSDDDESKFREYLEIKFPENFRLIRRESNSGGKAGALNFASRISKGDYLVFMDADARVNEDFLQRLNNKDYVACSLKIIIYDTSTSIQSYYAEFTEKVMDMMFKGRSKLGLPIFPNGSAFSIRRDTLLSIGGWKENAIAEDLELGIRMYLNDLKNLFYDDVVVFLKSPYTLMDLYNQIQRWSYGSSQLLKSSLKLLKKGIKGFEGLLYSQQWVIYPLFFTVLGVYGILTPVFNITQTYLLLLILIYGISVVFYSQVLNQKRVDIKILKTILDASITGYLKGLFGLKYKWRVTPKILDKGGRLIEDNNIPLISIPFYLISFFDASMGFVLSSIVILLVALIESF”, the protein production entry was “failed”.

Consider “MLGYLLLYMIFGGILLAYGSDWFIEGSTRVAKHFNVSNFVIGATIVAFGTSLPEIVTSSGAALSGSPGLAVGNAIGSCIANIGIILGISVLMYPLIIKKRAIIKNGNIYLIATILLVILGYNGFSRFDGLILFLFMIIYVIYTIKTSESDEEEIISDITVKKASIFIVVGLLAVILGSDLFIGGAKGIAEYFNVPESIIGFSLVAFGTSLPELASSVAAAKRKLGSIVLGNVIGSNIANTCVALSFSAMIVDIPKYNVELMVNTIMALLIIFTMNREKIKKMLNFKNFRTDYFSKIDRIDGISYILIYLIFLAYLLGYIF”, for which the protein production result was “failed”.

On to “MLHGFLRLAAGAGRSLAVPAILLALGAPAQAGSLLEDCANDKLTPPNRIVACTNVLEDKAASASDQAVAYFNRANALDRNGEFDRAIADYDKAIAFNPKDAEAFNNRGLIWGHKKDFDRALADYDKAIELNPQIAIAYANRGLIWNDIKHDYVKAIADFDKAIRLDPENNGLYNLRGNAYLRKGDYDQAITSYSQAIFLDSQDPNQYFNLGLAWTTKGNLERAIADYSQAISLDANHAEAYRWRADAWVKRGDTDQALSDYTEAIRLDPGDAETFRNRARIWERKRDYDRAIADYDQAIAFAPNDAVAYNGRGWMWSLKHETDRAIVDYVKATAFDPNYVLAYDNLGLAWWDKGDLDRAISAFDQAVIVDPKYAPAYNDRGLARMDKNQYDLAIADYNMAILIDAGFVSAYRNRGNAWNRKGQFDYAIADFDQAIDHDPDDADAYVGRGRSRIYKADYTKAIADLDQAIRIGPKSARAHDTRGLAMVYKADYAGALADYDEAIRLSPKNASAYRNRGIASFYFGPPAKAQADFEQAAAIKPGDSYHAIWLDLARRRNGQPSILVDAKLDMTRWPAAVVRLLLGQQTPEATLLAADNPDATKKSEQLCEANFYVAEFQRLQHHDEEALRLYRLALGGCPRDFIEYTAATSALRVMGKAP”, for which the protein production result is reported as “failed”.

For “MLHGKGCKKDVKIIVWSGLLFLCLAARALATGVVGYLPMSDGEYAQKRALKPLLTLPYSVSPDQTWHFRQVGVSGVTLLPEPKKDNEWRISGKDRAGNSWVVPVGRLINLAGNAQFYRADLDRNGIQDLVIWLGNPGLGLAPSAQYIIFTFLKNGRPCVFEPWGFYTATDTGVDDLLDLQGNGRTQLLDMQFDSGYWITNLYQVKDARWQRVHGWFGRLSYPALTRFNHYPGRKLIIKPIAGRNPQTDDLSLTQRCLIRGNVLPGVNQD”, the protein production result is reported as “failed”.

For the sequence “MLHHVEINVDHLEESIAFWDWLLGELGYEDYQSWSRGKSYKHGKTYLVFVQTEDRFQTPTFHRKRTGLNHLAFHAASREKVDELTQKLKERGDPILYEDRHPFAGGPNHYAVFCEDPNRIKVEIVAP”, the protein production entry was “not failed”.

As to “MLHTEKVEYVNQAHEDITGIARDKSIGTNLRDLTFFRQHNALAEQTLAKIFRGDQAKGEVQFSRTDGSRYWLKYIVSQFITDRGNHYALVSGEENSDEHLEHHHHHH”, the protein production result is listed as “failed”.

In the case of “MLHVHILSWVLAIILFIATYLNYSKTQGASPYYKPLHMALRLFMLLTLISGFWELIEEFMAASNGEGGNHMLLTLKMLCGLAVIAFMEISIAKRKKQQTSHKFFWITIILIIITMAIGVILPWGPISKIFGIS”, the protein production entry was “failed”.

Consider “MLIFGFIGLFFLNIFSLHAQGIVTNKDAQEEFKWALNSYNNGIYDDALLSFKKILSFDPNNLDYHFWTGNVYYRLGYVEEALMEWRNLKDQGYKVPYLRHLISTIEQRRGIFSNYELNFKKLVKVASLDNSIYKRPHGYQITSLRADKYGGYYAANFVGNEILYFDVNNNVNALVKDGFSYLKSPYDVIEANNLLYVTLYSSDEIGVYDKVLGVKRKSIGNKGTKDGELLAPQYMAIDKRNYIYVSEWGNKRVSKFGLEGDFILHFGSRTSGYKGLLGPTGVTYLNENIYVADSLRNTIEVFDTSGNHLYSVFTSIEGIEGLSSDFVGNNVIVSSKDGVYKYSIAKKTITKILKADKMNSKISSSILDANNQMIVSDFNNAKVSVYKSDASLYDSLNVDVRRIIRLGGPKIYVELNVSSKSGLPVVGLKSENFSISNENYYIVNPKVAYNVNASKDINIAVVFDKSSYMKKYDTDQIVGLNALMELSKNKNFSFINATSVPIIDNIESLTNSIRNTSSLGPYSTDAVKTDVSLKLAGSGLMSKSSRRAVVYFSGGILNRKAFEKYSLDTIVSYYKNNDIRFYLILFGNDPINSKLQYLVNETGGAVIPFSSYEGVSKVYDLILEQKTGTYLLEYYYPGPQEPNKYFNLSVEANINQQTGRGEFAYFINLEHHHHHH”, for which the protein production entry is “failed”.

“MLIINKLNHAQKQLEKLNFIPQQADKVDFLASSSEFKARILQLINTAKSRIYLTALYFEQDEAGQQILAALYQAKLANPALDIQILVDWHRAQRGRIGEKTTSSNADWYANMKQQYNLPPEQEIAVWGVPINGREIFGVLHLKGFIFDDTILYSGASINNVYLQQFDRYRYDRYHTLENKVLADSLVTFLQQHILTDHAVNRLDNMQRPVTANIRPAIKAFRKQLTKQQYQFAEQPESNGLMLSPIAGLGRKNQLNKTIEALFYKTQNKLTICTPYFNFPRSLITRIKWLLENGKQVEIIAGDKKANDFYTPPDKKFTMAAALPYLYEKNLRAFAKRFDSYIQNKLLTIRLWKDGENTYHLKGLWVDNRYILLTGNNLNPRAWGLDAENGILLDDPKAELAEKAALELTQIRTFTQELSHYSDLETIKDYPLEVQKLLKKFGRVKLDKIIKMLLLEHHHHHH”: the protein production entry is reported as “failed”.

As to “MLIITYISACILFLVSFSHVYWAFGGNWGTNSVIPTKAGEKAFTPRAGMTLVIALLLSMAAIILLQQANIVHFAVPNVIIQVGSWICMIVFSIRVIGEFNYFGIFKRQKDTHFARMDTGLYIPLCAFLSLSFLLAIIL”, the protein production entry was “failed”.

As for “MLILVILLVLVALAFDFINGFHDAANSIATVVSTRVLSPLVAVGWAAFFNFISAMPVLWGAELKVAATMGKGIVHFEQLKAGGISLVLMVVFAALMGAIVWNLLTWWWGLPSSSSHALAGGMIGASLPPLGFAGLIPSGILKIAAFIVLSPLIGMVLGSAMMVATAWVVRKNTPARVDRWFRRLQLVSAAIFSYSHGTNDAQKVMGIISVILYGTIWADRAAMTPGHFPVPFWVVLSCHAAIGLGTMFGGWRIVRTMGHNLTKLQPIGGFCAETGGGVTILALAHFGIPVSTTHTITGAIVGVGSTKGTRAVRWGVAGRIIWAWIFTIPAAAIVAGVIFLVTRAIVSVIGVG”, the protein production result is recorded as “failed”.

“MLINKTKRAEQNLNNLPFLALQAEQIEFLGSSAEFKTQIIELIRNAKKRIYVTALYWQKDEAGQEILDEIYRVKQENPHLDVKVLIDWHRAQRNLLGAEKSATNADWYCEQRQTYQLPDDPNMFFGVPINTREVFGVLHVKGFVFDDTVLYSGASINNVYLHQFEKYRYDRYQKITHAELADSMVNFINDYLLDFSAVYPLDVTNRPRTKEIRGNIRAYRKDLAQNGEYSLKSAVKLPNVLSVSPLFGLGASGNELNQVIEDLFLQVQKKLVICTPYFNFPRTLQHKIATLLENGKRVEIIVGDKVANDFYIPPEQPFKMAGALPYLYESNLRRFCEKFETQIESGQLVVRLWRDGDNTYHLKGVWVDDRYILLTGNNLNPRAWRLDAENGLLIYDPQQQLLAQVEKEQNQIRQHTKVLKHYTELEELNQYPEPVQKLLKKFARIKADKLVKMIL”: the protein production result is on record as “not failed”.

Regarding “MLIPSKLHFPRRLHNAILRQRVLDTLENAMHYKLVLFRSPAGYGKTTMAAQWLSDKDATGWYSLDESDNDEYKFAKYFVQTISNATHTELSHSKALTEKRQFASLSSLFSQVFTELISFQDEAYIVLDDYHLITNDTIHLGLKFFLKHLPDNLTLVITSRSQPPLNTANLRVRDLLIEIDNQSLAFDQSETSLFFNQRLNENIDQEAITHVREHVEGWPSALQLIALHSIQNNQSLNNSAQVMAQLNHAHLWDYLAEEVFDHLDQETQQFLMRCAVFDHFNTTLLSKVTQRKDAQLLIENLNRFGLFINTNGEQGDWYKFHNLFAEFLTHQRQNHLAHEEIDLQKYAAEAWLEHDNIYQALRHAKNAKDDILIANILTQHGWHLFNNGELSLLETTISDLRPEVLFTSPRLVIIRAWLAQSQHNYLQVNDLLSEAQREMADRNIVLDRHMQGEIDALRAQVAINKNEPEAALAFAEKALEELETNKYRSRIVATSVIGEYHHVSGNLAQALALMQQTEKMAMTYGIYHQALWAILQQSEILMAQGFMQAAFDLQDNGFKLIEDQDLHQLPLHEFLLRSRAQIYWFWFRFDEAEQCTWKGLDVLSPFDETKHLRGYSMLARLAVARGELDKAERYLDKCQQLLGQSDYHIDWKANASSAQLFYWQAKNNSEAIQYWLAQAERPETRCNHFTQLQWRNIARAQFHLGDIDTAIETLQTSQTIAQQHKLITDINRNAILAAILLYENKQIDEAVEAMHLAIKQSNQTGIIGSFLMAGRNVLKPLGKLQQKGNVTELEKHRIEQLQKALSNNERSRSAHFDETFIEKVLNTPEVPELIRTSPLTHREWQVLGLIYSGFSNEQIAAEFDVAPTTIKTHIRNLYQKLNLPNRKAAIAMADELVGMMK”, the protein production result was “failed”.

On to “MLIRPTLEPDITWLPDVERSAAQAFVSWPALAWLAQGDVMDCAAHRAFVEAGGSWVAQDATGRIVGFACARLADQALHLHEISVRQEAQGQGVGRRLLQQVVDAGRCAGVRELTLTTFVDVPWNAPFYARFGFEMLQESRLCERLRGILASEHAHGLLGRCAMRLNVGL”, for which the protein production result was “failed”.

Regarding “MLIVIGYAVVILAVVGSFIGLGGHLGALYQPFELTLIAGAAVGAFMAGNSRKSLGLVAKAIPEAFRSSPYSKDVYMELMALLYVLLNKARREGLMAIESHIEDPLSSPIFNEYPRIMKDAKLMEFITDYLRIMISGNMSSFEIETLMDEEIETYRHEREVPTHALQQVADALPAFGIVAAVLGVIKALAAVDQPPAILGDLISKAMVGTFLGVLLAYGFVAPMAARIERRTSESVKVLECIKVTLLASMNGYPPQLAVEFGRKVLFSAVRPSFGELEEHVRQAKSAATGRA”, the protein production result is given as “failed”.

“MLIWWRGKFRRADEISLDFSLFEKSLQGAVYETLRTYSRAPFAAYKHYTRLKRSADFFNLPLSLSFDEFTKVLKAGADEFKQEVRIKVYLFPDSGEVLFVFSPLNIPDLETGVEVKISNVRRIPDLSTPPALKITGRTDIVLARREIVDCYDVILLGLNGQVCEGSFSNVFLVKEGKLITPSLDSGILDGITRENVIKLAKSLEIPVEERVVWVWELFEADEMFLTHTSAGVVPVRRLNEHSFFEEEPGPVTATLMENFEPFVLNLEENWVGI”: the protein production result is “not failed”.

In the case of “MLIYGLARLLLFVVLTLIIHSLALLISAPVPLVMSAMLALIVAFPLSMLVFSKLRMNATQAVSQWDAQRKAHKEWVRSELADR”, the protein production entry is listed as “failed”.
